{"source": "patent US20170340751A1", "key": {"[1]": {"molecular_target": "SIINFEKL/MHC-I complex on DC2.4 cells (mouse) (UniProt P01901)", "assay": "flow cytometry of DC2.4 cells incubated 13 h with OVA antigen fusion protein (SEQ ID NO: 3), PE-25.D1-16 at 0.6 ug/ml"}, "[2]": {"molecular_target": "SIINFEKL/MHC-I complex on DC2.4 cells (mouse) (UniProt P01901)", "assay": "flow cytometry of DC2.4 cells loaded with SIINFEKL peptide (positive control), PE-25.D1-16 at 0.6 ug/ml"}}, "data": [{"substance": "PE-labeled monoclonal antibody 25.D1-16", "values": [{"measurement": "percent of cells positively stained", "setting": "[1]", "result": 17.6, "unit": "%"}, {"measurement": "percent of cells positively stained", "setting": "[2]", "result": "> 80", "unit": "%"}]}]}
